Laboratory results reported in the DeepSol protein solubility set.

assay: soluble on expression in E. coli; label from the status in PepcDB or PDB records

Row | Sequence | soluble on expression in E. coli
1 | MSLQQPLAYRMRPRTIDEVVGQQHLVGEGKIIRRMVDARMLSSMILYGPPGTGKTSIASAIAGSTNYAFRMLNAATDSKKDLQVVAEEAKMSGTVILLLDEVHRLDKTKQDFLLPHLESGRIILIGATTENPYITINPAIRSRTQIFEVKPLTEQDIQLAVEHALRDKERGLGQQAIQLDEDALLHLSRATNGDLRSALNGLELATLSTPSDKEGRIHLTLSIIEECVQRKALTHDKNGDAHYDVISAFQKSIRGSDVDAALHYLARLVEAGDLASICRRLMVIGYEDIGLGNPAAAARTVNAVLAAEKLGLPEARIPLADVVVDLCLSPKSNSAYMALDAALADIREGKAGDVPDHLRDSHYKGAKSLNRGVGYQYPHHFDQAWVNQQYLPDKLKNAQYYQPKDTGKYEQALGQQYYRIKEWKEGHHHHHH | soluble
2 | MSLQRKVFPKCQWVGVSEMKGIRPTQEDAVICYPFAPNGIHIFSVLDGHGGSKTSNFAACDLFNNLSKLEKVDENTLSGSVSATLKSLKAQHFNDGSTMALAVITPNRHIFSCHLGDSRTIVVRRDGSISHFTKDHKPDEKSEVKRVLSQHGFILKHRVMGLLAVSSSLGDFEVVGIGHQPVIREWVIDESDKWLVICCDGVFDVLTNEEVGKICQNATSASALAYDIKNIAFELLSQDNISCIAVDLENMAFSNEGHHHHHH | soluble
3 | MSLQRVSNRLIEQSDIENMPNTWKKQAYRQIAKKLGPKSNFPCIFSKNAYKKGLLQFVFMESISHDQMEELKVCLTEFIEANKEWDHRISTAKPLLIVFSTQAIKSERLEDYHSFGWNVLRSIHALDPSPWPHGVDKDPSSPNWSMCFNGMQLFINMSCPAHKVRRSRNLGDHFIMVVNPRERFDVVAGDNAKGHRVRDEIRGRIEIYDNCKPCKQLGYFGSDTMEWQQYGIIEENKTRTSKCPYKIDEGHHHHHH | soluble
4 | MSLQSLWIYPEDTEVLGAACKSLLKALKPRYQKIALFSPISGGCEGFGECESLSSLEVHSAIDKQKALELVSTAQEELLFETILKRYDELQSTHDFVINLGYAPKFFLNALLDLNTILAKHLNAPVVAVAQTSLDHLKAMHSHILKKEAPFAIGLFVGETLEKPHFLSASLCKQQCELEASAIENLLQTKSEIITPLAFQRSLEKKAKKQIKKVVLPESEDERILKAAHRLNLMGAVGLILLGDKEAINSQAKNLNLNLENVEIINPNTSHYREEFAKSLYELRKSKGLSEQEAERLALDKTYFATMLVHLGYAHAMVSGVNHTTAETIRPALQIIKTKPGVSLVSSVFLMCLDTQVFVFGDCAIIPNPSPKELAEIATTSAQTAKQFNIAPKVALLSYATGNSAQGEMIDKINEALTIVQKLDPQLEIDGPLQFDASIDKGVAKKKMPNSQVAGQASVFIFPDLNAGNIAYKAVQRSAKAVAIGPILQGLNKPINDLSRGALVEDIVNTVLISAIQAQDYEGHHHHHH | not soluble
5 | MSLRDEQEIYNLVLNIANQDKRIEAVLLNGSRANPNVPKDDFQDYDIVFVTNFIEDIISDTNYHKKFGDILIMQKPNEFRNKTEYNCFAYLMQFQDLTRIDLRLIKPEFLEDYLDDAFSKVLLDKKNKYLDYNFERSSLYETKQLSEDEINKILNEIYWVSTYVVKGIARNDIIYSEFMISNPIKNAFIKLLKQKILIEKELDSLSFGKLDKDILQYITDKDQLLKIFSNKSLKDIEANLRFLLDETNQMAKYISINRKLNLNQGEYQSAMKFMNIFLSNSYQNFNEGHHHHHH | soluble
6 | MSLRDSAFFETGEKHFRTLCSSCHSAHQEIYGPMLGSISKKRKESWLIPFIRNSQEVIRSGDAYAKALFEKFDHQIMPPFEQLSDQDIKAILYYLEIESLQPQEYLNDAAIPPTSDSSVIRGKQEFLDHCSMCHFVHKESTFAPALGSVTKRHSREWLISFIQNSEKKINQGDAYAVHLFNQFDQHVMTNMDFLPIEEINAILDYIEFASTVDVAEGHHHHHH | not soluble
7 | MSLRDTVLVVDDEPDSLRFLADTLEGAGIRVLVAISGDAALDVLQHVEPDLILMDGVMPGRSGFETTACIKARPELAHVPVVFMTGLHDDEHVVRGFEVGGVDYLRKPVNVQELLARVRVHVGNARAIQAGAAGLDATGRLMMATDLQGGLLWCTPLAERAIARACPGWSRDAGALPDALREPVRKMLGRGAAQSGSVKVEQVDGTMELVVIAQYRGQEVLIRVNELNPKADIALLQQKLGLTDREAEVLLWTSYGKSNATISEVLAISPRTVQKHLERIYEKLGIETRAAAAAVAIKALGNEGHHHHHH | soluble
8 | MSLREGYLPAVITVSGKDRPGVTAAFFRVLSANQVQVLDVEQSMFRGFLNLAAFVGIAPERVETVTTGLTDTLKVHGQSVVVELQETVQSSRPRSSHVVVVLGDPVDALDISRIGQTLADYDANIDTIRGISDYPVTGLELKVTVPDVSPGGGEAMRKALAALTSELNVDIAIERSGLLRRSKRLVCFDCDSTLITGEVIEMLAAHAGKEAEVAAVTERAMRGELDFEESLRERVKALAGLDASVIDEVAAAIELTPGARTTIRTLNRMGYQTAVVSGGFIQVLEGLAEELELDYVRANTLEIVDGKLTGNVTGKIVDRAAKAEFLREFAADSGLKMYQTVAVGDGANDIDMLSAAGLGVAFNAKPALKEIADTSVNHPFLDEVLHIMGISRDEGHHHHHH | soluble
9 | MSLRIAIVGAGALGLYYGALLQRSGEDVHFLLRRDYEAIAGNGLKVFSINGDFTLPHVKGYRAPEEIGPMDLVLVGLKTFANSRYEELIRPLVEEGTQILTLQNGLGNEEALATLFGAERIIGGVAFLCSNRGEPGEVHHLGAGRIILGEFLPRDTGRIEELAAMFRQAGVDCRTTDDLKRARWEKLVWNIPFNGLCALLQQPVNLILARDVSRKLVRGIMLEVIAGANAQGLATFIADGYVDDMLEFTDAMGEYKPSMEIDREEGRPLEIAAIFRTPLAYGAREGIAMPRVEMLATLLEQATGEGHHHHHH | soluble
10 | MSLRILDIREQAIPVSRYDDPAIASGGLTTSIVAIVTDVVRDGRPVTGYGYASAGRFAQGGLIRERFAPRLLAAAEALADDAGTNLDPLRAWRAMMAGEKPGGHGERCVAVGTLDMAIWDAAAKIARVPLHCLIADRLGRAAPARTARVRVYAGGGYRYPRDDLARLSDEMRRIVDLGYTHAKIKIGATDLDVDRRRIEAAAARLADSAHLAVDAMNAYDATNAGDAAAMLAPFGLWWFEDVCDPLDLPLHAQLAAQYAPPIAAGEALFSLAEAKLLDRYGGLRSDRDVLVFDPVHCYGLSGYLQIVDHFVSRGWRRDAFWPHGGHLFSLHVVAALGLGGAEVNPFAFHPFSGLADGERVDAGYAALPSAPGIGFECHARVHAAFRALSVREGHHHHHH | soluble
11 | MSLRKGNEIELLVEGIEFPAKGFGFVDGLKVYAKNTFPGQKVFGRVTKKRKEYAEIRVSEVREKASYEEDQKCPHFGVCGGCSSQTIPYEKQLELKVEQVKDLFKEAEVPTGEFLGIETSPIQWEYRNKMEYTFGDEEKGGELTLGMHMKGKSFGIVNVDKCVLVDEDFRNILDTTVKYFREKGLPFYKIMPRTGYLRYLVVRKSVKTEEILVNLVTTTQIDFDLTEFTELIKGLNLKGKLKSIIHTESDALSEAVIPEKVNILYGDDFITENLLGLNFKISPFSFFQTNSLGAEKLYSIVRDFMGAADNKVVFDLYCGTGTIGQIAAGKASKVIGIELIEEAAMAANENAKLNGLNNCNFIAGDVAEVIKTVKDKPDIIILDPPRSGVHPKALDYVIKFNAPQIIYVSCNPKTLVTDLKVLEAKGYEIEKTLLMDMFPNTPHVETVVKLNKKEGHHHHHH | soluble
12 | MSLRKSTLSGEVRVRNHQLGIYEKALAKDLSWPERLVLAKSCGFDFVEMSVDETDERLSRLDWSAAQRTSLVAAMIETGVGIPSMCLSAHRRFPFGSRDEAVRERAREIMSKAIRLARDLGIRTIQLAGYDVYYEDHDEGTRQRFAEGLAWAVEQAAASQVMLAVEIMDTAFMNSISKWKKWDEMLASPWFTVYPDVGNLSAWGNDVPAELKLGIDRIAAIHLKDTQPVTGQSPGQFRDVPFGEGCVDFVGIFKTLHKLNYRGSFLIEMWTEKAKEPVLEIIQARRWIEARMQEAGFICEGGSHHHHHH | soluble
13 | MSLRMRVGKFDYLNNFLPYYFLNEKVEIVEANPREMASMLLSGRIDYAPVPAFFYLKNRERLRHYEFCVASEGKVLSVVVVSRKKELDDGSIAVTPHSLTSVNLLKILLAERGMKNMLVEVNTAKASEMLELCPHALVIGDEAIKARMIYKVVMDLGEEWYELTSLPAVFGISASLKETNAEEMDRKILMATEEGYRRFDEVVRAAEKAFKMPREFLEEYFRTLKFRLSSKERRGLDEFEKYCRDYEGHHHHHH | soluble
14 | MSLRNKLLTIFDSVDESARIKDAFITQLESSITDAGVLALKLELLDFLTSNLSNYSRTMTISHLLLGFQVSNVISLGPNLATFISSGTSLLDSLISVLEASLNSITKDNIDYAPMRLATAALEIILKLCRNPLTSGLLYSYLIKENFFERIMILDPQVTRFTTWNGSPFDNSTEEKCKNFIESESVGAFLSFLAYRNYWTQYLGLFIHKISFSGTKSEVLTYVNYLISNTMYSVRLFSFLDPLNYGNICEPKETLSIFTNVPLNLEQVTLNKYCSGNIYDFHKMENLMRLIKRVRAESLHSNEGHHHHHH | soluble
15 | MSLRNMSIINSTPVRVIAIVGCDGSGKSTLTASLVNELAARMPTEHIYLGQSSGRIGEWISQLPVIGAPFGRYLRSKAAHVHEKPSTPPGNITALVIYLLSCWRAYKFRKMLCKSQQGFLLITDRYPQVEVPGFRFDGPQLAKTTGGNGWIKMLRQRELKLYQWMASYLPVLLIRLGIDEQTAFARKPDHQLAALQEKIAVTPQLTFNGAKILELDGRHPADEILQASLRAIHAALSEGHHHHHH | soluble
16 | MSLRPGQVDNDVINLVAMLFEFILDDRHLHSVMKSLLGRLQIPILKVALTDKNFFNRGGHPARKLLNEMALAATGWTEKRPGQRDPLLDKISAVVNRILAEFSTDVSLFNELLDDFNQFSDLDQRRSDLVEQRLRDAEEGRARHEQATADTKELLHEAMDGRLLPEPVQDMLNGPWSHYLHWLALHESTDSEAWQRAKTLTEQLIWTIDPVPLTATTHELLQQAIPQVIEQLRGALEGVAWDGLSVEMVVRDLELVHLDVFQRLVIAPSEAAGNDHAQIDDSQEAPAVRADAVPSDTTNTSADVSHPAPALPVAADDPKEAVVARVPEPTRAQPVVAEEWLAKADGLRVGCWLELNRDGSQIRCKLAAFIRAVDKYIFVNRSGAKVAEYRRNELAEMMAQGHIEILDDGLIFDRALESIIDNLRTSRREGHHHHHH | soluble
17 | MSLRRLLQVFFFCPKQIYSFKLYQSLIFYNYTDAFFSVKIVSTTNFGGHIMSTTIIGFPRLGEFRELKFTTEKYFRKEISEEELLAAAKDLRAKHWNIVKEKGITEIPSNDFSHYDNFLDAAFLFNVVPASVQNLDLSDLERYFALGRGYQGEKGDVRALPMKKWFNTNYHYIVPKFEKDTQVKLAGHKIFDEFQEAKELGLNTRPVLVGPFTFLQLSDFEEGVKADDFVDSFVAAYQEVFAKLADLGATRIQLDEAALVKDLTAEEKALFLNLYNKLLADKKGLEVLFQTYFGDVRDVYADLVNLPVDAIGLDFVEGKKTLELVKGGFPADKTLYVGIVNGKNIWRNNYEKSLTVLEQIPAENIVLTSSCSLLHVPFTTANEEFEPALLNHFAFAVEKLDEIRDLDAIRNGQGSEALAANKELFATERVGENAELRARIAGLTDADYTRLPAFAEREAIQEEAFKLPALPTTTIGSFPQTKEVRAKRLAYRKGELSQKEYDAFLAETIDEWIKWQEDIDFDVLVHGEFERNDMVEYFGQNLSGYLFSKNGWVQSYGMRGVKPPIIWGDVTRLNPITVKWSSYAQSRTNKPVKGMLTGPVTILNWSFPREDISIKDSTLQIALAIKDEVLDLEAAGVKIIQIDEAALREKLPLRRSDWYEDYLDWAIPAFRLVHSTVAPDTQIHTHMCYSEFTDIIPAIDNMDADVISFEASRSNLEILDELKAKNFQTEVGPGVYDIHSPRVPNEGEIDNTIEAILAKVPSKKVWINPDCGLKTRGIPETKESLIRLVEAAKAAREKLEGHHHHHH | soluble
